Our source for the amyloid nucleation score values is the supplement of paper PMC12042874.

± gives the uncertainty stated by the source.

A short description of the series: amyloid nucleation score (Sup35N fusion, yeast selection) (log enrichment); library NNK3; higher = more nucleation; inactive = no reads after selection. The procedure, abridged: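 The nucleation score, computed with DiMSum, is the log enrichment of output over input reads, centred on the mode score of non-aggregating sequences. Sequences with under 100 input reads were dropped. Reads were generated by Illumina sequencing of plasmid inserts from psi-negative yeast with Sup35N fused to peptides of 20 random codons, induced with 100 μM copper sulfate for 24 hours and grown 7 days at 30°C on medium lacking adenine and uracil.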
As to LMVMGVSSCLTFAIDILRNM, the amyloid nucleation score came out at 1.13 ± 0.16.
The substance LMYTRGFLWGAWINACMSRG returned an amyloid nucleation score of 1.2 ± 0.15.
As to LNAEIL, the amyloid nucleation score result was “inactive”.
LNATKSDCHSLLI: the amyloid nucleation score entry was “inactive”.
For LNCMQVYFICVTWFAC, the amyloid nucleation score result is “inactive”.
Regarding LNCPSYPNVGPWNLEVTAFQ, the amyloid nucleation score result is “inactive”.
Turning to LNFSHGSCGSFCGSIMIST, the amyloid nucleation score result was “inactive”.
For LNILVTC, the amyloid nucleation score entry is “inactive”.
Then LNKHSAYGTDLVYSRLKFVL, with “inactive”.
Consider LNLHSSLGMFASLGDMIRVT, for which the amyloid nucleation score entry is “inactive”.
For the substance LNLSYGM, the amyloid nucleation score result is “inactive”.
Regarding LNLWPNSD, the amyloid nucleation score entry is “inactive”.
As for LNNSTSCEVGKNVCISFKWA, the amyloid nucleation score came out at 2.22 ± 0.089.
As for LNPNYRNAYLNYRVLFY, the amyloid nucleation score result is “inactive”.
Then LNPTAYYVVPLVLALAWISH, with “inactive”.
Consider LNRVINYLIKLYFAGWVSHD, for which the amyloid nucleation score entry was “inactive”.
Turning to LNSTTCLTAGWIGNAFIACN, the amyloid nucleation score entry is “inactive”.
In the case of LNTDESWGFMCLTKFE, the amyloid nucleation score entry is “inactive”.
For LNTPPQVSMGSEGLSFNMSF, the amyloid nucleation score result was “inactive”.
For the substance LNTRVGSFTNRLWSRMKEGG, the amyloid nucleation score result was “inactive”.
LNWGLVTDSTFIWLMDTLRL: the amyloid nucleation score was 1.05 ± 0.11.
In the case of LNWVKTYVAYLFFYSISKRC, the amyloid nucleation score entry was “inactive”.
For the substance LPGSDRQFPREAVHYSRMRG, the amyloid nucleation score was found to be 0.714 ± 0.32.
For LPICDQTIWFLPSRAVAGNV, the amyloid nucleation score result is “inactive”.
For the substance LPICVVMDKRFCTIVISSST, the amyloid nucleation score result was “inactive”.
As for LPILHSRPVIQETL, the amyloid nucleation score entry was “inactive”.
The same measure for LPSDSGYTGYHVWTLKSTCD: “inactive”; for LPTSQA: “inactive”.
LPWSINRCNRVENQLVYVWN gave an amyloid nucleation score of 1.1 ± 0.14.
LPYTGIYSRFRDRLWCVLKT: the amyloid nucleation score entry was “inactive”.
For LQAHCSNFWVFYMAFGPIDF, the amyloid nucleation score worked out at 1.76 ± 0.095.
In the case of LQCAHLFPV, the amyloid nucleation score was found to be 0.931 ± 0.099.
With LQIPKPFAMKYTMFQRKQND, the amyloid nucleation score entry was “inactive”.
In the case of LQRGTQVYRCSLSFVRNVRF, the amyloid nucleation score entry is “inactive”.
LQRPASEFSERGA: the amyloid nucleation score entry is “inactive”.
As to LQSRF, the amyloid nucleation score result was “inactive”.
Then LQSVMFLPICFLLT, with “inactive”; and LQYHRLGQLPRQNRDTVLLL, with “inactive”; and LRCYDILLDA, with “inactive”.
Regarding LREYFMFPRVHNLFNLV, the amyloid nucleation score entry is “inactive”.
LRGCLKSVIDTSLG: the amyloid nucleation score result was “inactive”.
With LRGCVNAYLRYHTRGLVVLR, the amyloid nucleation score entry was “inactive”.
As to LRGKDN, the amyloid nucleation score entry was “inactive”.
In the case of LRIMSIYIEEALSIGHDNWF, the amyloid nucleation score is 0.205 ± 0.46.
For LRKRRGPK, the amyloid nucleation score entry was “inactive”.
For LRKSLTEQPPKGLASRLYWS, the amyloid nucleation score entry is “inactive”.
Then LRSFQWVIVTMPLTRIRSDK, with “inactive”.
Consider LRSWPVLHSAISTND, for which the amyloid nucleation score entry was “inactive”.
With LRVILQLYIEGLIVQ, the amyloid nucleation score result was “inactive”.
With LRVKNDVHGLLELGSVDVSI, the amyloid nucleation score result was “inactive”.
The same measure for LRWSGFIGDAYGYLFKEWGQ: 0.145 ± 0.33; for LSASGYQSCSNVMMSTHVSN: “inactive”; for LSCDGNRGTVFVIRIFSGDV: 2.62 ± 0.078.
Consider LSDGSHLSECYGFT, for which the amyloid nucleation score result was “inactive”.
